3 compounds from paper PMC4769169 (eLife, 2016) can be followed below.

In one assay the target is T1, LRRK2 (Homo sapiens, UniProt Q5S007, G2019S).
T1 construct: GST-LRRK2 (residues 960-2527)
Briefly: in vitro kinase assay with recombinant LRRK2 and Rab10, inhibitor at […]. The class given is biochemical.

In the next assay the target is Rabin8 (Rab3IP) 144-460 (UniProt Q96QF0). Briefly: Ni2+-NTA pull-down by His-Rabin8. To be noted: reference: non-phosphorylated Rab8a; sites T72.
In assay [1] the target is HIS-tagged Rabin8 (residues 144-460) (human) (UniProt Q96QF0).
Sequence of HIS-tagged Rabin8 (residues 144-460) (human) (Q96QF0 144-460): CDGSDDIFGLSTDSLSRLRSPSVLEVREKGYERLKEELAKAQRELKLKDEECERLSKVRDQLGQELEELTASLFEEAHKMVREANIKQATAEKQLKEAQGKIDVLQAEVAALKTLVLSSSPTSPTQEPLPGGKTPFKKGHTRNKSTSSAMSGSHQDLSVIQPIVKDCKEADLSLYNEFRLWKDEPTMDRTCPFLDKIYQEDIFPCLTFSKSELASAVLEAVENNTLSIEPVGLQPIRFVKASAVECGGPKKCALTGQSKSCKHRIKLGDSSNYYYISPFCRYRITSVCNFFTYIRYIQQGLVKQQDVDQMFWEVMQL

T1 sequence (Q5S007 960-2527 G2019S): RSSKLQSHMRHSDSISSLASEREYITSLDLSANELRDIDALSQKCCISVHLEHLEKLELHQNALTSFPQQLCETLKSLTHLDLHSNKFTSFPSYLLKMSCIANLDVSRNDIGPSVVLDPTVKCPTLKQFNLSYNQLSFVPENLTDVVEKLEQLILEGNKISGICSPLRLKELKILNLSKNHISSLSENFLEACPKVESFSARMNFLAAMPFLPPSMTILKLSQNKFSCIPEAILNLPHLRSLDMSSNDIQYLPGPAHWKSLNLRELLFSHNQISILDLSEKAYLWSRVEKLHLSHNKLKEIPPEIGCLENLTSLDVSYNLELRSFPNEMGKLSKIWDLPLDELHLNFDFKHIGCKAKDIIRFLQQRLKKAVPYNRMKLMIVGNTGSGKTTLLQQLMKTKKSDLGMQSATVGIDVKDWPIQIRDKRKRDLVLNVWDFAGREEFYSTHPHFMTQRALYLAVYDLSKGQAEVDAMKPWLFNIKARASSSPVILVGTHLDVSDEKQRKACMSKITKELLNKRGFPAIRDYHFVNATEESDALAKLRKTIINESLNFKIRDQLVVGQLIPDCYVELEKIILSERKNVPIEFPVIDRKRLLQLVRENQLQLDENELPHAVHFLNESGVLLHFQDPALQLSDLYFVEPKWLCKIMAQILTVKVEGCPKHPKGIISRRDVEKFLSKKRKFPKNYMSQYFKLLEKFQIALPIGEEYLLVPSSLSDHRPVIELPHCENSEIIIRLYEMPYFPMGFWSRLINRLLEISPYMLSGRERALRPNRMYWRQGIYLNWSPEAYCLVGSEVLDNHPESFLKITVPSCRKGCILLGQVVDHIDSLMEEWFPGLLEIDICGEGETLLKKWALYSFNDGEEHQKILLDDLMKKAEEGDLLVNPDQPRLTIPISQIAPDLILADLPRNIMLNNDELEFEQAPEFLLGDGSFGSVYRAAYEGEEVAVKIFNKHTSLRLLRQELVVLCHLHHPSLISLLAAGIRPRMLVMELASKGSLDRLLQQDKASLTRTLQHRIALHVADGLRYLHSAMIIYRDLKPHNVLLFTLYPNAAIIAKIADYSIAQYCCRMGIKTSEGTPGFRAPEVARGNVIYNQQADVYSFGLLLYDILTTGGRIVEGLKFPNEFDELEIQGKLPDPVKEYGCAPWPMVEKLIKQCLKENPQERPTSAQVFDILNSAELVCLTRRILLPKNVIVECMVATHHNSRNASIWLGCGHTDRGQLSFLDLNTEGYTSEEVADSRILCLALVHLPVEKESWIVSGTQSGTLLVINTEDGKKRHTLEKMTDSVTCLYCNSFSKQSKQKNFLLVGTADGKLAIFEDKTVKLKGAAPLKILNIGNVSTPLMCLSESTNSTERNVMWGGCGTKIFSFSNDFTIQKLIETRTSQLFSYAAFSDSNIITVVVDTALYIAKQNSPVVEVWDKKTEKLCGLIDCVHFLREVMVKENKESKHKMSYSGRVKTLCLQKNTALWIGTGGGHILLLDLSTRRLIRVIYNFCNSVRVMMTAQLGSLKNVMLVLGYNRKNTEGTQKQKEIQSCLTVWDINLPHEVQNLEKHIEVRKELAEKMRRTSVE

With `O=C(Nc1cccnc1)c1cc(-c2ccnc(F)c2)ccc1OCc1ccccc1` [GSK2578215A], the “in vitro kinase assay with recombinant LRRK2 and Rab10, inhibitor at 2 μM” value at LRRK2 is on record as “Inhibition of LRRK2-G2019S by GSK2578215A or HG-10-102-01 prevents phosphorylation”.

With “Rab8a 1-183 (from UniProt P61006) LRRK2-G2019S-phosphorylated, ion-exchange-enriched pT72-Rab8a”, in the assay with Rabin8 (Rab3IP) 144-460, the “binding against the reference” value is listed as “weaker”.

In turn, “Rab8a (1-183) quantitatively phosphorylated pT72 (from UniProt P61006 1-183) (domain or fragment)” registered a rate of Rabin8-catalyzed mant-GDP exchange (GEF assay with Rabin8 144-245, 2 μM), T72-phosphorylated against non-phosphorylated Rab8a (1-183): inhibition in assay [1] of 4 fold.
